From US6699842B1, “Dominant negative deletion mutants of C-jun and their use in the prevention and treatment of cancer” (The United States of America as represented by the …, priority 1994, dated 2004) come the findings set out here.

One experiment deals with c-Jun. As to the kind of experiment: immunoprecipitation and densitometry of c-Jun protein in stable JB6 transfectants. Format: cell-based, mouse. Particulars: 10 ng/ml, fifteen hours, TAM67 or Neo-only transfectants. On the procedure:
Three TAM67 clonal transfectants (M4, M3, M6) and one neo-only clonal transfectant (N1) were treated for fifteen hours with either 10 ng/ml TPA (T), 10 ng/ml EGF (E), or 0.1% DMSO (D) prior to metabolic labelling for two hours with 0.2 mCi/ml ^35S -methionine (Amersham, Rockford, Ill.) (Sun, Y. et al. (1993) Mol. Carcinogenesis, 8: 49-57). Cellular lysates were then collected and immunoprecipitations using polyclonal rabbit c-jun antibody (AB-1 antibody, Oncogene Science) were carried out overnite at 4° C. (Sun et al. (1993)). These immunoprecipitates were then analyzed by electrophoresis on 12.5% SDS polyacrylamide gels and these gels are shown in FIG. 4.

A further experiment deals with AP-1. As to the kind of experiment: CAT assay with stromelysin promoter reporter P750TRCAT (AP-1 dependent) in JB6 P+ Cl 41 cells. Format: cell-based, mouse. Particulars: 10 ng/ml, eight hours. The source says: The plasmid constructs used in the following examples were as follows: P750TRCAT is a CAT reporter construct containing 750 bp of the rat stromelysin promoter driving the heterogolous gene chloramphenicol acetyl-transferase (CAT). This construct contains an AP-1 binding sequence at position −70 (Matrisian, L. M. et al. (1991) Am. J. Medic. Sci., 302: 157-162, Kerr, L. D. et al. (1988) Science., 242: 1424-1427, McDonnell, S. E. et al. (1990) Mol. Cell. Biol. 105 4284-4293). The mTRE-CAT reporter is a site-directed mutant with 2 point mutations in the AP-1 site (Matrisian, L. M. et al. (1991) Am. J. Medic. Sci., 302: 157-162) and the mPEA3-CAT reporter is a site-directed mutant in which point mutations in each of the PEA3 sites at position −208 to −200 and −191 to −199 of the stromelysin promoter were introduced using a protocol provided with the site-directed mutagenesis kit of Amersham Corp. (Arlington Heights, Ill.) and an oligonucleotide having SEQ ID NO.:1 GCAAGAAGCATTTCTTGG.
In brief, JB6 Cl 41 (P^+) cells transfected for 4-5 hours using a standard calcium phosphate transfection procedure (Sambrook, J. et al. (1989) “Molecular Cloning, A Laboratory Manual” Cold Spring Harbor Laboratory Press, Cold Spring Harbor, N.Y.) with 10 μg of one of three CAT reporter plasmid DNAs, P750TRCAT, mTRE-CAT or mPEA3-CAT and 10 μg of sheared genomic DNA isolated from Cl 41 cells were then changed to medium containing 2% fetal calf serum and twenty-four to forty-two hours later, were treated with either 0.1% of DMSO, 10 ng/ml of TPA or 10 ng/ml EGF for eight hours prior to preparation of total cell extracts. CAT enzyme activity was assayed using a diffusion-based CAT assay according to the protocol provided by the manufacturers (New England Nuclear, Del.). The results are expressed as the rate of accumulation of [^14C]-acetylated product relative to solvent controls (DMSO).
In order to determine whether TPA-induced CAT activity in JB6 P^+ cells is capable of being abolished, TPA induced CAT activity was measured in the presence of the known AP-1 inhibitors retinoic acid (RA) and fluocinolone acetonide (FA). In brief, JB6 P^+ Cl 41 cells were transfected with 10 μg of P750TRCAT and 10 μg of sheared genomic DNA from Cl 41 cells as in Example 1. […] As before, the results are expressed as the rate of accumulation of ^14C-acetylated product relative to solvent controls. […]

B1: epidermal growth factor (protein, UniProt P01133 23-1207, looked up)
Pro-epidermal growth factor: PQHWSCPEGTLAGNGNSTCVGPAPFLIFSHGNSIFRIDTEGTNYEQLVVDAGVSVIMDFHYNEKRIYWVDLERQLLQRVFLNGSRQERVCNIEKNVSGMAINWINEEVIWSNQQEGIITVTDMKGNNSHILLSALKYPANVAVDPVERFIFWSSEVAGSLYRADLDGVGVKALLETSEKITAVSLDVLDKRLFWIQYNREGSNSLICSCDYDGGSVHISKHPTQHNLFAMSLFGDRIFYSTWKMKTIWIANKHTGKDMVRINLHSSFVPLGELKVVHPLAQPKAEDDTWEPEQKLCKLRKGNCSSTVCGQDLQSHLCMCAEGYALSRDRKYCEDVNECAFWNHGCTLGCKNTPGSYYCTCPVGFVLLPDGKRCHQLVSCPRNVSECSHDCVLTSEGPLCFCPEGSVLERDGKTCSGCSSPDNGGCSQLCVPLSPVSWECDCFPGYDLQLDEKSCAASGPQPFLLFANSQDIRHMHFDGTDYGTLLSQQMGMVYALDHDPVENKIYFAHTALKWIERANMDGSQRERLIEEGVDVPEGLAVDWIGRRFYWTDRGKSLIGRSDLNGKRSKIITKENISQPRGIAVHPMAKRLFWTDTGINPRIESSSLQGLGRLVIASSDLIWPSGITIDFLTDKLYWCDAKQSVIEMANLDGSKRRRLTQNDVGHPFAVAVFEDYVWFSDWAMPSVMRVNKRTGKDRVRLQGSMLKPSSLVVVHPLAKPGADPCLYQNGGCEHICKKRLGTAWCSCREGFMKASDGKTCLALDGHQLLAGGEVDLKNQVTPLDILSKTRVSEDNITESQHMLVAEIMVSDQDDCAPVGCSMYARCISEGEDATCQCLKGFAGDGKLCSDIDECEMGVPVCPPASSKCINTEGGYVCRCSEGYQGDGIHCLDIDECQLGEHSCGENASCTNTEGGYTCMCAGRLSEPGLICPDSTPPPHLREDDHHYSVRNSDSECPLSHDGYCLHDGVCMYIEALDKYACNCVVGYIGERCQYRDLKWWELRHAGHGQQQKVIVVAVCVVVLVMLLLLSLWGAHYYRTQKLLSKNPKNPYEESSRDVRSRRPADTEDGMSSCPQPWFVVIKEHQDLKNGGQPVAGEDGQAADGSMQPTSWRQEPQLCGMGTEQGCWIPVSSDKGSCPQVMERSFHMPSYGTQTLEGGVEKPHSLLSANPLWQQRALDPPHQMELTQ
modifications: Pro-epidermal growth factor
notes: tumor promoter, peptide growth factor
For B1, the “c-Jun protein levels (43 kDa band, densitometric analysis)” value with c-Jun is “no significant differences”. In addition, in the experiment on AP-1 (N1-N3 transfectants, P750TRCAT), the “increase in AP-1 dependent CAT activity in neo-only transfectants” value is “three to four fold increases”. Moreover, in the experiment with AP-1 (P750TRCAT-transfected JB6 P+ Cl 41 cells), the “CAT activity relative to uninduced cells, P750TRCAT reporter” value was “about 2 fold”. The “CAT activity relative to uninduced cells, mPEA3-CAT reporter” value in the experiment on AP-1 (mPEA3-CAT-transfected JB6 P+ Cl 41 cells (PEA3 sites mutated)) is given as “about 2 fold”. In addition, the “inducibility of CAT activity, mTRE-CAT reporter” value in the experiment with AP-1 (mTRE-CAT-transfected cells (AP-1 binding site mutated)) is “loss of inducibility”.
